Among the data in patent US20080008648A1 are inhibition of IL13-suppressed CD14 expression on human monocytes (complete inhibition) values, retold here.

The target in this test is human IL13 (human) (UniProt P35225). Kind of test: cell-based or functional assay.
Chain of human IL13 (human) (P35225 35-146 limits assumed): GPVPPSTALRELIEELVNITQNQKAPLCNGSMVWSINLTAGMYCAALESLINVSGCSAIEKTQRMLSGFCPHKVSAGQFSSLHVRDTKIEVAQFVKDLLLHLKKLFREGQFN

“anti-IL13 mAb JES10-5A2 (BD Biosciences-Pharmingen) (antibody)” showed an inhibition of IL13-suppressed CD14 expression on human monocytes (complete inhibition) of more than 80 nM.
